System: XPO5-His6 (Exportin-5) (Homo sapiens)
Test: EMSA
Conditions: no RanGTP, 20 mM HEPES pH 7.3, 150 mM K acetate, 2 mM Mg acetate, 0.05% NP-40, 7 mM 2-mercaptoethanol, 1.5 ug/mL poly dIdC, 0.2% BSA, 25 C 45 min, then 0.3 ug heparin …

pri-mir-15b was tested, and the Kd (single shifted complex) was 9.57 nM.
pri-mir-19a showed a Kd (two complexes with increasing XPO5) of 14.6 nM.
vtRNA1-1 showed a Kd (1 nM RNA, super-shift at high XPO5) of 36.3 nM.

— publication PMC7160132
